Measured values published in the supplement of paper PMC9170038.

System: K4 kissing-loop RNA reporter
Test: apparent KD of K4 kissing-loop reporter; higher = weaker reporter binding
Details: Eterna round: R107
Protocol: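 RNA-MaP round R107: designed RNA switches with theophylline, tryptophan, arginine or FMN aptamers are transcribed on-chip within common flanks. They are titrated with a labelled K4 kissing-loop RNA reporter in RNA-MaP buffer (100 mM Tris pH 7.5, 80 mM KCl, 4 mM MgCl2), without ligand or with the indicated ligand. Median apparent KD per design.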

[1] = input ligand: theophylline 20 uM
[2] = input ligand: tryptophan 2.4 mM
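Also: bound reporter read as fluorescence of individual clusters on recovered sequencing chips by microscopy, with normalized cluster intensities fitted with a binding model.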

Sequence | apparent KD of K4 kissing-loop reporter (input ligand: FMN 200 uM) [nM] | apparent KD of K4 kissing-loop reporter (input ligand: arginine 13.2 mM) [nM] | apparent KD of K4 kissing-loop reporter (input ligand: none) [nM] | apparent KD of K4 kissing-loop reporter [1] [nM] | apparent KD of K4 kissing-loop reporter [2] [nM]
AGUGAUGUGGGAAGGAGCGCUACAAGACUUCAGUGAUGUUGAAGUGAUGUUUUAGUGUUGUAGCAGGUAGGUCGCCUAGAUGUUA [KL-XARG-B10] | 71.2 | 31.9 | 42.5 | 45.7 | 43.7
CCUAUCUCAUACGAUACCAGUGAAUAACCAGUGAUGUUGGAAUAACCAAGGAAUAUUUUUCACCCUUGGCAGCGUAUGGGAUAGG [Ex Theophylline B K4 27] | 492 | 285 | 378 | 385 | 312
GCAUCCAUGGCAGGAUAUAGCUGAGUGAUGUUCAGGACCCAGUCAGUAUCCAUUACUACUGGACUUCUAGAAGGGCCAUGGAUGC | 231 | 192 | 288 | 288 | 246
UGUCAUUGGUCUGAUACCAGAUGAUAAUCUGGAGUGAUGUUCCAAGAACGACAAAGUCGCAUCCCUUGGCAGCAGACCGAUGACU [TheoBS 18 #SwitchBubble 13 #StaticStem] | 312 | 151 | 236 | 526 | 238
GGCAGUGAUGUUGCCUAAGCAACGCAUGCAGAGGAUAUUCGUUCGGGAAGAAGGCUGCAGCGUUCUCUCGUCAGUGAUGUUGGCG [Same State FMN A GF 24] | 140 | 115 | 127 | 130 | 114
AUCGAGCCCAUCGGUGAGUCAUUAGUUGAUACCAGAGCUAUUGGCCUCCCUUGGCAGCAAGUAAACCUGUUUAGUGAUGUUAAAC [theeternabot_exclusion_KL_Theo_A_15] | 178 | 150 | 168 | 162 | 157
UGUCAUUGGUCGGCCGCCACUUGAAGGUCAAAGACCAUAGAGUGAUGUUCUAAGACGAAAGUCACGAGGACCGGGACCGAUGACU [TrypBS 4 #SwitchBubble #K4Middle] | 57.7 | 195 | 114 | 351 | 1130
AAUAGCCGUACUAGUGAUGUUAGUGUGGAUACCAGUUCAUGGACGAACCCUUGGCAGCCAUCAAAUAUAUAUGAGGGAUCAUCAC [theeternabot_exclusion_KL_Theo_A_47] | 295 | 268 | 309 | 410 | 320
AACUGUCAAGGACAACAUUACUGGAGUGAUACCAGCAUCGAAAGAUGCCCUUGGCAGCACUAACUUGCAGUGAUGUUGCAAGUAA [BrourdMod 6 - Jieux - Exclusion - Theophylline A] | 208 | 174 | 196 | 192 | 191
AGACUACCUACACUGUCAAUAGACAGUGACUAGGAUAUGCUGAUAAGCAGAAGGAGUGAUGUUCCAAAUAAAAGGUGGUAGUCAU [FmnAX 18 #SwitchBubble #StaticStem #K4Early] | 378 | 160 | 142 | 152 | 111
UGUGAUGUGUAGUGUUAUGUUUUGAGGGAUACCAGAGUCUUUUUAUUCCCUUGGCAGCUUGAGUGAUGUUUGAUGCUGUUGUUGU [dvccmullin] | 463 | 342 | 412 | 431 | 339
AAGCAGUCACUCGAAUCCAUCGAAGAUGGGCGAGGACCGGUACGGCCGCCACUCGGAGUGAUGUUCCGAAGACUGCAAAAUAAAA | 262 | 264 | 419 | 786 | 378
UAAAUAAUAAAACGAGUGAUGUUCGACGAUACCAGCCUCGAUAGAGGCCCUUGGCAGCGUAAAUGAUCACAAAGCCAAGGAAUAA [#OpenEnded 1] | 158 | 174 | 158 | 192 | 134
CUGACGCUGAUACGGUGGCCGGUGGUCGUGCGAGGACCGGUACGGCCGCCACUCGCAUGAGUGAUGUUCAUGUGUCGUCGUCGUC [#05 K4 Tryptophan A Exclusion] | 116 | 95.9 | 114 | 90.2 | 123
AGUCCACUCUAAAGAGUGGACCUAAGGGAUACCAGUGAUGUUGGUCACCCUUGGCAGCCCUCUGUCAUCGAUAAAGAUGGCAGCA | 132 | 114 | 136 | 149 | 145
UGACUGGACUGAAGGAGCGUUCAGGUAGGUCGCUAUGGAGUGAUGUUCCAUAGAAGGAGCGAACAGGUAGGUCGCAGUCUAGUCU [ArgBS 30 #DoubleAptamer #SwitchBubble] | 181 | 100 | 111 | 167 | 120
GUCCUGAGUGAUGUUCGGGUCGUUCGGGAAGGAGCGCCCGCAAGGGCAGGUAGGUCGCCCGGAUCUCUCAGGUAACUGAGAGACC [#2 Same State - Arginine A Attempt #29 (HarryS)] | 563 | 303 | 448 | 554 | 383
